Experimental data taken from publication PMC4313098, “Mesencephalic Astrocyte-Derived Neurotrophic Factor Is Involved in Inflammation by Negatively Regulating the NF-κB Pathway” (Scientific Reports, 2015).

Target: T1, p65-N2-His (amino acids 1-190) (UniProt Q04206 1-190)
T1 construct: NF-κB p65, N-terminal 190 residues, subcloned into pET28a; also called p65-N2-6 × His; 6 × His-tagged p65-N2 fragment; source: E. coli, purified
Assay: pull-down; in vitro: purified GST-fused MANF (or truncate, or GST) pre-bound to glutathione-agarose; purified p65-N2-6xHis loaded in 50 mM Tris-HCl pH 7.5, 100 mM NaCl, 0.1% Triton X-100, 1 hr at 4°C; eluted with 500 mM NaCl; blot with anti-His
Conditions: both partners purified

T1 sequence (Q04206 1-190): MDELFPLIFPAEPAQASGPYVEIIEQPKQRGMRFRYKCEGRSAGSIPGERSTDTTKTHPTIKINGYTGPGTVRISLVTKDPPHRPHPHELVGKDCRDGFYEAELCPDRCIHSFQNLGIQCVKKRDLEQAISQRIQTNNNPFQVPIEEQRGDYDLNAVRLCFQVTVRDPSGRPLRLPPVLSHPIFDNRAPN

B1: MANF-D3-GST (C-terminal SAP-like domain, amino acids 96-182) (domain or fragment, human, UniProt P55145 96-182, looked up)
chain: LAHHIPVEKICEKLKKKDSQICELKYDKQIDLSTVDLKKLRVKELKKILDDWGETCKGCAEKSDYIRKINELMPKYAPKAASARTDL
- binding result: binds
